From patent publication US20030162190

Assays:
NF-kB p50 homodimer = NF-kB p50 homodimer (UniProt P19838); experiment: EMSA; settings: only 'similar data was collected for p50'; method inferred
[1] = target: NF-kB p65 (RelA) homodimer (UniProt Q04206); experiment: EMSA; settings: 1:1 stoichiometry; method inferred
Chain of NF-kB p65 (RelA) homodimer (Q04206 whole entry): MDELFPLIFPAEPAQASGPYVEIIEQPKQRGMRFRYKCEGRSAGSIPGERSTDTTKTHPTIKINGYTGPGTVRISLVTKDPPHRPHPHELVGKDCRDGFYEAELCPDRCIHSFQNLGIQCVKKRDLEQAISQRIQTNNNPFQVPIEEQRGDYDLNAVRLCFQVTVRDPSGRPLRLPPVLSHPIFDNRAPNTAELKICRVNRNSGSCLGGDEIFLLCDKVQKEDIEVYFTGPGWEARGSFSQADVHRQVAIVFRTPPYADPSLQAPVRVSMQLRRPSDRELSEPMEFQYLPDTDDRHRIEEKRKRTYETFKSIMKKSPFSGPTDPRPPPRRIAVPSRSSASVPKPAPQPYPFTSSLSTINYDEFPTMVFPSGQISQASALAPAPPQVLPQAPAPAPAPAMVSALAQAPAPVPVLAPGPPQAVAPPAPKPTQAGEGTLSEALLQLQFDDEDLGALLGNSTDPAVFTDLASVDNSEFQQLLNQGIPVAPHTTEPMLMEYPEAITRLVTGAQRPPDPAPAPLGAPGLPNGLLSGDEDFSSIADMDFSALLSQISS

Chain of NF-kB p50 homodimer (P19838 1-433): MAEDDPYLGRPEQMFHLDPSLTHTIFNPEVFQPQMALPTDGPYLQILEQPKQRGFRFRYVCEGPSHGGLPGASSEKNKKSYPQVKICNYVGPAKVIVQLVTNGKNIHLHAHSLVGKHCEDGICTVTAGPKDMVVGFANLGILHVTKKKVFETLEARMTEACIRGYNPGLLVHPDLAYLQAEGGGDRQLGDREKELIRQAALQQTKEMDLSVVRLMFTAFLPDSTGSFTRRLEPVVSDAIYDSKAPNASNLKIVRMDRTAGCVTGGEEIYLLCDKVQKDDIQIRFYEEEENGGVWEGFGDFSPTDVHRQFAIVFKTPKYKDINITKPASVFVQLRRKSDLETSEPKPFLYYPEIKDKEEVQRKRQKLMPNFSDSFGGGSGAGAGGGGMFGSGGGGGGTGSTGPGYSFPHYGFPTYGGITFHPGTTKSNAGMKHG

IgkB 22-mer promoter site
Kd (NF-kB p50 homodimer): 4 nM | Kd [1]: 4 nM
